Results: PMC4145800

Biological target: T1, wild-type (polymerization-competent) yeast αβ-tubulin, P09733;P02557
T1 chain 1: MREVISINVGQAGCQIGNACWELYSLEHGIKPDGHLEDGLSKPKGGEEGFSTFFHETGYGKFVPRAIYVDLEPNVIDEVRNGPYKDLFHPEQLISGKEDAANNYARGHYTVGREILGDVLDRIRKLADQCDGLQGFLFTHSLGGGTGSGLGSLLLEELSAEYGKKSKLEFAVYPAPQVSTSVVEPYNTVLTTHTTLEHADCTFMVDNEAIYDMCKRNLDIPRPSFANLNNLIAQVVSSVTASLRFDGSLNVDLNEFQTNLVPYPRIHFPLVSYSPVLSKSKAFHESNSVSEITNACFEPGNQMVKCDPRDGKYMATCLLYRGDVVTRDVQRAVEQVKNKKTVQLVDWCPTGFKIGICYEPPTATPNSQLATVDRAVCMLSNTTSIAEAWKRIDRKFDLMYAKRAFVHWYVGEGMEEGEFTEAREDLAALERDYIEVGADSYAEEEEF
T1 chain 2: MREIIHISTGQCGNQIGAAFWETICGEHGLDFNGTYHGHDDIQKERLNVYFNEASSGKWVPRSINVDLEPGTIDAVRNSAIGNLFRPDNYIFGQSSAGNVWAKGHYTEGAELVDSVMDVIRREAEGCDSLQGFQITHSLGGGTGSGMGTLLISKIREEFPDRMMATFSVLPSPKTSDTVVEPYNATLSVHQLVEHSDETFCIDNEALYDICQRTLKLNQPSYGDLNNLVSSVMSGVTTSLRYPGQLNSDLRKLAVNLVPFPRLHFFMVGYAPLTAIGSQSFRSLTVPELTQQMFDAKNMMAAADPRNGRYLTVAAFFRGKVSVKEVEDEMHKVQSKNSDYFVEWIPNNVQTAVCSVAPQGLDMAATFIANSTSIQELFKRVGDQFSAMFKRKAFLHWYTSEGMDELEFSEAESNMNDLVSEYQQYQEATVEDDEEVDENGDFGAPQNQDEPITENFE
Assay: sedimentation velocity AUC
Conditions: chain shown with the change; [TOG1-TOG2] = 1.7 µM; [αβ] = 0.35 µM

B1: TOG1-TOG2(1-560) of Stu2p, P46675 W341A (protein)
chain: MSGEEEVDYTTLPLEERLTYKLWKARLEAYKELNQLFRNSVGDISRDDNIQIYWRDPTLFAQYITDSNVVAQEQAIVALNSLIDAFASSSLKNAHNITLISTWTPLLVEKGLTSSRATTKTQSMSCILSLCGLDTSITQSVELVIPFFEKKLPKLIAAAANCVYELMAAFGLTNVNVQTFLPELLKHVPQLAGHGDRNVRSQTMNLIVEIYKVTGNNSDLLEEILFKKLKPIQVKDLHKLFAKVGDEPSSSKMLFEWEKRELEKKRSQEEEARKRKSILSNDEGEYQIDKDGDTLMGMETDMPPSKQQSGVQIDTFSMLPEETILDKLPKDFQERITSSKAKDRVEALEEFWDSVLSQTKKLKSTSQNYSNLLGIYGHIIQKDANIQAVALAAQSVELICDKLKTPGFSKDYVSLVFTPLLDRTKEKKPSVIEAIRKALLTICKYYDPLASSGRNEDMLKDILEHMKHKTPQIRMECTQLFNASMKEEKDGYSTLQRYLKDEVVPIVIQIVNDTQPAIRTIGFESFAILIKIFGMNTFVKTLEHLDNLKRKKIEETVKTL
Q: How did the other: sedimentation coefficient of the TOG1-TOG2:αβ-tubulin complex (s20,w) turn out when B1 was run?
A: The other: sedimentation coefficient of the TOG1-TOG2:αβ-tubulin complex (s20,w) was 7.1 S.
